In assay [1] the test system is Spiral ganglion neurons (SGNs). The experiment in a line: Survival of dissociated spiral ganglion neurons (Example C). Format: cell-based, rat. As to conditions: 1 µM; compared to vehicle-only control, 0.01% DMSO; FIG. 6C. As for the experimental part: Spiral ganglion neurons (SGNs) were harvested from P1-P3 rates, dissociated, and cultured in 96-well plates. The SGNs were treated with neurotrophins and/or antibodies at various concentrations. After about 24 hours, media was exchanged to serum-free media and the neurotrophins and/or antibodies were replenished. Cells were cultured for an additional 48-72 hours before being fixed using 4% paraformaldehyde (PFA) and stained using 4′,6-diamidino-2-phenylindole (DAPI). […] Surviving neurons were identified as cells with intact soma and at least one neurite.

Assay [2] has as its system tinnitus. The conditions noted are these: administered by IV; cited from earlier work.
In assay [3] the test system is Méniére’s disease symptoms. The conditions noted are these: infusion into the scala tympani; cited from earlier work.
Assay [4] concerns SGNs. Briefly: SGN complexity, dissociated SGNs (Example D). Format: cell-based, rat. The conditions noted are these: compared to IgG-treated control, FIG. 7D. An excerpt: SGNs were immunostained, imaged, and batch analyzed with PerkinElmer Harmony 4.6 software. Changes in the complexities of SGNs upon treatment with various agents were examined. […] All of the images in a single well were stitched together and analyzed. SGN somas are shown in the upper right panel and SGN neurites are shown in the lower left panel. As shown in the lower right panel, each neurite tree is assigned to a single cell for analysis. Depending on the stitching, occasionally neurites will not meet the criteria due to gaps that exceed a user-defined threshold.

The test system of assay [5] is noise exposed adult rats. Briefly: Noise-induced hearing loss / synaptopathy in rats (Example A1). Format: in vivo, rat. As for the experimental part:
Poloxamer 407 gel at 16% was prepared using the cold method. In brief, a 16% w/w stock solution of poloxamer 407 was prepared by slowly adding it to a cold buffer solution (10 mM PBS, pH 7.4). Sterilization was achieved by filtration. Human recombinant BDNF was suspended with an appropriate amount of poloxamer 407 solution to reach a range of concentration of 0.05 to 5.0 mg/ml BDNF.
Male rats (Charles River) approximately 10-11 months of age served as subjects (N = 6 per group). Prior to any procedures, animals were anesthetized using a combination of xylazine (10 mg/kg) and ketamine (90 mg/kg) for up to one hour via the intraperitoneal route. If needed, an intraoperative booster was administered intraperitoneally representing one-tenth of the original dose. […]
Auditory Brainstem Response (ABR) assessment (wave 1) - During the procedure, additional anesthetic (xylazine and ketamine) was administered if needed to maintain the depth of anesthesia sufficient to insure immobilization and relaxation. ABRs were recorded in an electrically and acoustically shielded chamber, one ear at a time. […] Acoustic calibration was performed with TDT software (SigCal) and thresholds were expressed as dB SPL in conditions identical to that of threshold recordings in animals. […] Wave 1 was quantified by averaging the wave 1 amplitude from intensities ranging between 60-80 dB SPL. […]

Assay [6] has as its system noise-induced cochlear synaptopathy. The experiment in a line: Noise-induced cochlear synaptopathy in rats (Example G). It counts as in vivo, rat. As for the experimental part: Animals: Male Sprague-Dawley rats (5-6 months of age) were used for efficacy studies and females (2-3 months) were used for pharmacokinetic studies.
Formulations: Human recombinant BDNF was suspended in the thermoreversible polymer Poloxamer 407 (16%) to reach a range of BDNF concentrations.
Intratympanic (IT) injection: Formulations were administered under anesthesia as a single IT injection (20 µl through the tympanic membrane into the middle ear, targeting the round window membrane (RWM).
Noise-induced cochlear synaptopathy: Rats (n= 44 per treatment group) received a single acoustic trauma (105 dB SPL, 8-16 kHz, 1h) under anesthesia. 24 hours later (Day 1) animals received a single bilateral IT injection of the treatment regimens. Auditory function (ABR and ABR wave 1 amplitude) was monitored at day 1 and then every 7 days for 28 days. At termination (Day 28), cochleae were collected and assessed for evidence of cochlear synaptopathy (IHC synaptic puncta counts).
Immunohistochemistry: Dissected cochleae were immunostained with antibodies against presynaptic (CtBP2) and postsynaptic (GluR2) proteins and MyosinVIIa to label hair cells. Cochleae were then frequency mapped and high-magnification images were obtained with a Zeiss LSM-880 confocal microscope and imaged at an interval of 0.35 µm.
Intratympanic BDNF improves Auditory Brainstem Response (ABR) thresholds and wave I amplitudes in adult rats. The Auditory Brainstem Response (ABR) is an objective test that measures hearing sensitivity and can identify abnormalities in the peripheral auditory system and the auditory pathway up through the brainstem. Adult male rats were bilaterally exposed to noise followed by an intratympanic injection of 0.05 mg/ml BDNF in P407 24 hours after noise exposure. ABR recordings were obtained at days 1, 7, 14, and 28.

For the molecule `OCCN(CCO)c1ccc(C(c2ccc(Cl)cc2)c2ccc(N(CCO)CCO)cc2)cc1` [LM22b10], the “Survival of SGNs” value in assay [1] was “not improved”.
`CCN(CC)CC(=O)Nc1c(C)cccc1C` [Lidocaine]: in assay [2], the “sufferers in whom the noise associated with tinnitus is reduced or eliminated” value is reported as 60-80%.
For `Cc1ccccc1C(=O)Nc1ccc(C(=O)N2CCCC(N(C)C)c3ccccc32)cc1` (stereo not drawn) [OPC-31260], the “Méniére’s disease symptoms” value in assay [3] was “marked reduction”.

B1: neurotrophin-3 (protein, UniProt P20783 139-257, looked up)
Neurotrophin-3: YAEHKSHRGEYSVCDSESLWVTDKSSAIDIRGHQVTVLGEIKTGNSPVKQYFYETRCKEARPVKNGCRGIDDKHWNSQCKTSQTYVRALTSENNKLVGWRWIRIDTSCVCALSRKIGRT
notes: neurotrophin; Trk agonist on spiral ganglion neurons
For the molecule B1, the “total neurite length, total number of extremities, segments, and nodes per cell (differences)” value in assay [4] is listed as “not statistically significant”.

B2: brain-derived neurotrophic factor (protein, UniProt P23560 19-247, looked up)
Neurotrophic factor BDNF …: APMKEANIRGQGGLAYPGVRTHGTLESVNGPKAGSRGLTSLADTFEHVIEELLDEDQKVRPNEENNKDADLYTSRVMLSSQVPLEPPLLFLLEEYKNYLDAANMSMRVRRHSDPARRGELSVCDSISEWVTAADKKTAVDMSGGTVTVLEKVPVSKGQLKQYFYETKCNPMGYTKEGCRGIDKRHWNSQCRTTQSYVRALTMDSKKRIGWRFIRIDTSCVCTLTIKRGR
notes: Human recombinant BDNF; neurotrophin, Trk agonist on spiral ganglion neurons
As for B2, the “hearing function (wave I amplitude)” value in assay [5] (single intratympanic 0.005% BDNF in Poloxamer 407 24 hrs after noise, compared to vehicle, FIG. 3A) is reported as “improved hearing function”. The “number of ribbon synapses per inner hair cell” value in assay [5] (single intratympanic 0.005% BDNF in Poloxamer 407, Day 28, compared to vehicle, FIG. 3B) is “increased”. In addition, the “total neurite length, total number of extremities, segments, and nodes per cell (differences)” value in assay [4] is “not statistically significant”. In addition, the “ABR wave I amplitudes” value in assay [6] (adult male rats, BDNF or vehicle treatment following noise exposure, across many frequencies, FIG. 12C) was “Significant improvements”. Also, the “recovery of initial ABR threshold shifts” value in assay [6] (adult male rats, intratympanic 0.05 mg/ml BDNF in P407 24 hours after noise exposure, ABR at days 1, 7, 14, 28, vs P407 vehicle, FIG. 12A) is reported as “more rapid recovery”. Further, the “levels of hearing loss” value in assay [6] (adult male rats, intratympanic 0.05 mg/ml BDNF in P407 24 hours after noise exposure, vs P407 vehicle) was “reduced”. Moreover, the “synaptic puncta (co-expression of CtBp2 and GluR2) per inner hair cell” value in assay [6] (adult rats after noise damage, each frequency region throughout the cochlea, FIG. 13C) was “increased”. Further, the cochlear synaptopathy result in assay [6] (adult rats, intratympanic BDNF) is recorded as “repairs”.

These data come from US20230190642A1, “GROWTH FACTOR OTIC FORMULATIONS” (OTONOMY, INC., priority 2018, published 2023).
